Assay results: patent publication US20200283519A1 (IMCHECK THERAPEUTICS, published 2020)

How the values were obtained:
[1] = biological target: T1, human BTN2A2 CFP(Nter)-fusion protein expressed on 293F BTN3/BTN2 KO cells (human, UniProt Q8WVV5 33-523); assay: flow cytometry on BTN2A2-transfected 293F BTN3/BTN2 KO cells (summary table, repeats the 7th table)
T1 construct: also called pcDNA3-Zeo-BTN2A2-CFP; not shown: CFP fused at the N-terminus (CFP(Nter)-fusion)
T1 sequence: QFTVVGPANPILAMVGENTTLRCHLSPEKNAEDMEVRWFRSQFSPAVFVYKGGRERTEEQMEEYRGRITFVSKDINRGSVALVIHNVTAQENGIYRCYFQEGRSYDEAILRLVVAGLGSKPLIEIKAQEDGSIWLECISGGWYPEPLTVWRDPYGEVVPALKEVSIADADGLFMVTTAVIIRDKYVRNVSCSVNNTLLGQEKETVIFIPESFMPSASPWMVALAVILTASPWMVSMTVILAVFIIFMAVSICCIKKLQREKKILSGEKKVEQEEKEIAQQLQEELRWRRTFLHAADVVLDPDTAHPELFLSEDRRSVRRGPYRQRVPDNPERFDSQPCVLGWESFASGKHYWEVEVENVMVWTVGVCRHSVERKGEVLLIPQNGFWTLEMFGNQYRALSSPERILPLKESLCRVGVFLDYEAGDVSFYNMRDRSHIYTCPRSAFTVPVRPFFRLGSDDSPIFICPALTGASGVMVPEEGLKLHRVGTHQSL
Procedure: (§1) HEK-293F cells bearing CRISPR-Cas9-mediated deletions of all isoforms of BTN3 and BTN2 (293F BTN3/BTN2 KO) were generated (data not shown), cultured in DMEM (Life Technologies) 10% fetal bovine serum (FBS, Gibco) 1 mM sodium pyruvate (Thermofisher scientific), and transfected independently with pcDNA3-Zeo-BTN2A1-CFP or pcDNA3-Zeo-BTN2A2-CFP, which encode BTN2A1 and BTN2A2 CFP(Nter)-fusion proteins, using Lipofectamine 2000 reagent (Thermofisher scientific) according to manufacturer's instructions.
(§2) Twenty-four hours after transfection, cells (5×10⁴/sample) were collected and stained in duplicate with the indicated concentrations (2-fold dilutions starting from 20 μg/mL to 64 pg/mL) of all 7 purified anti-human BTN2 mAbs in 50 μL of staining buffer (DPBS1X (Thermofisher scientific) 1% FBS, 1 mM EDTA (Thermofisher scientific)) during 30 minutes at 4° C. Equal concentrations of mouse IgG1 antibody (Miltenyi) were used as isotype control for staining. Then, cells were washed twice with 200 μL of staining buffer, and incubated with a 1:200 dilution of goat anti-mouse Ig-PE conjugated (Jackson Immunoresearch) in staining buffer for 30 min at 4° C. in the dark. Finally, cells were washed twice in staining buffer prior to fixation using BD Cytofix reagent (BD Bioscience) according to manufacturer's instructions. Mean fluorescence intensity (MFI) on PE channel within the CFP-positive population was assessed for each sample in a Cytoflex LX (Beckman Coulter), and analyzed with a FlowJo V10.4.2 software (FlowJo, LLC 2006-2018).

[2] = biological target: T2, human BTN2A1 CFP(Nter)-fusion protein expressed on 293F BTN3/BTN2 KO cells (human, UniProt Q7KYR7 29-527); assay: flow cytometry on BTN2A1-transfected 293F BTN3/BTN2 KO cells (summary table, repeats the 7th table)
T2 construct: also called pcDNA3-Zeo-BTN2A1-CFP; not shown: CFP fused at the N-terminus (CFP(Nter)-fusion)
T2 sequence: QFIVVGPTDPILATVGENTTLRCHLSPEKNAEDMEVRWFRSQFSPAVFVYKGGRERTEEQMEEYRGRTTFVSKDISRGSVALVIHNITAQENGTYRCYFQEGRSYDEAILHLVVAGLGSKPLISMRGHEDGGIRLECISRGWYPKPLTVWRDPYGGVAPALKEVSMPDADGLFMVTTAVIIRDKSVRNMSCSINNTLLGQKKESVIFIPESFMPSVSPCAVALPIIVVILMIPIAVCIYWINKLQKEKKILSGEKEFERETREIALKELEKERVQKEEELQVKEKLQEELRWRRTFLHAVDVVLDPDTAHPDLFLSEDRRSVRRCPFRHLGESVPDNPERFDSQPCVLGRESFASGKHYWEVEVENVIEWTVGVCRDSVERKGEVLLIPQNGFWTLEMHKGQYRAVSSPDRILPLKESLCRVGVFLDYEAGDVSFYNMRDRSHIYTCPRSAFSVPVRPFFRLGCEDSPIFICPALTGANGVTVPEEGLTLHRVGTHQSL
Procedure: as §1, §2

[3] = biological target: T2, human BTN2A1 CFP(Nter)-fusion protein …; assay: flow cytometry (PE MFI in CFP-positive cells) on 293F BTN3/BTN2 KO cells transfected with BTN2A1-CFP
Procedure: as §1, §2

[4] = biological target: T3, human BTN2A2 expressed on HEK293F cells transfected with BTN2A2-Flag plasmid (human, UniProt Q8WVV5 33-523); assay: flow cytometry on HEK-BTN2 cells (summary table, repeats the 5th table)
T3 construct: HEK293F cells here are not knocked out for endogenous BTN2/BTN3; also called HEK-BTN2 cells; not shown: Flag tag
T3 sequence: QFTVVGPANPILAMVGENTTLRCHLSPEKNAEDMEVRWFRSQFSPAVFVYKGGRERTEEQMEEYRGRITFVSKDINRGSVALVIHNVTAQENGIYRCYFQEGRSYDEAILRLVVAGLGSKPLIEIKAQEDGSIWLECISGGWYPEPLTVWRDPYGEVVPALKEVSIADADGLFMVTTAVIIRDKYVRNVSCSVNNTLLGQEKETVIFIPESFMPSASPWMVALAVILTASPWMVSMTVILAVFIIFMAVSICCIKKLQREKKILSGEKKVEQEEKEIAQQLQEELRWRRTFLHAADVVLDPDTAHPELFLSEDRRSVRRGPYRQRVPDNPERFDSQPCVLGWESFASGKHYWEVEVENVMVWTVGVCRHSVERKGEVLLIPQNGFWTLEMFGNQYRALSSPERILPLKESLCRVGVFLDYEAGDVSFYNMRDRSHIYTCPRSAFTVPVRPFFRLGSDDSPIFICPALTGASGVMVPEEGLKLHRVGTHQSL

[5] = biological target: T3, human BTN2A2 expressed on HEK293F cells …; assay: flow cytometry titration on HEK293F cells transfected with BTN2A2-Flag
[6] = biological target: T1, human BTN2A2 CFP(Nter)-fusion protein …; assay: flow cytometry (PE MFI in CFP-positive cells) on 293F BTN3/BTN2 KO cells transfected with BTN2A2-CFP
Procedure: as §1, §2

[7] = biological target: T3, human BTN2A2 expressed on HEK293F cells …; assay: flow cytometry on HEK293F cells transfected with BTN2A2-Flag
Procedure: FIG. 1: Binding of BTN2 mAbs on HEK293F cells. HEK293F cells were transfected with BTN2A2-Flag plasmid. At day 1 after transfection, BTN2A2 transfected HEK293F cells (A) and non-transfected HEK293F cells (B) were stained with purified mouse anti-human BTN2 mAbs for 20 min at 4° C. Monoclonal Anti-Flag antibody serves as positive control for transfection. After 2 washes, cells were incubated with a secondary goat anti-mouse IgG PE for 20 min at 4° C. and a marker for cell viability. Cells were acquired on a LSRFortessa (BD) and analyzed with FlowJo (TreeStar).

[8] = biological target: T1, human BTN2A2 CFP(Nter)-fusion protein …; assay: flow cytometry on 293F BTN3/BTN2 KO cells transfected with BTN2A2-CFP
Procedure: as §1
as §2, with “Finally, cells were washed twice in staining buffer prior to fixation using BD Cytofix reagent (BD Bioscience) according to manufacturer's instructions.” left out

[9] = biological target: T2, human BTN2A1 CFP(Nter)-fusion protein …; assay: flow cytometry on 293F BTN3/BTN2 KO cells transfected with BTN2A1-CFP
Procedure: as §1
as §2, with “Finally, cells were washed twice in staining buffer prior to fixation using BD Cytofix reagent (BD Bioscience) according to manufacturer's instructions.” left out

B1: mAb1 (mouse anti-human BTN2 mAb 4.15) (antibody, V domains shown)
VH: QVQLQQSGAELVKPGASVKLSCKASGYIFTSYDINWVRQRPEQGLEWIGWIFPGDDSIIQNEKFKGKATLTTDKSSSTVYMQLSRLTSEDSAVYFCARLGPLRGFTYWGQGTLVTVSA
VL: DIVLTQSPASLAVSLGQRATISCRASESVDRYGSSFMHWYQQKPGQPPKLLIYRASNLESGIPARFSGSGSRTDFTLTINPVEADDVATYYCQQSNEDPWTFGGGTKLEIK
notes: Mouse IgG1 purified from hybridoma supernatant; also called CNCM I-5231
In the case of B1, the EC50 [1] is reported as 0.01 µg/mL, the EC50 [2] is reported as 0.06 µg/mL and the EC50 [3] is reported as 0.06 µg/mL. It also gave an EC50 [4] of 0.07 µg/mL, an EC50 [5] of 0.07 µg/mL and an EC50 [6] of 0.01 µg/mL.

B2: mAb2 (mouse anti-human BTN2 mAb 5.28) (antibody, V domains shown)
VH: QIQLVQSGPELKKPGETVKISCKASGYTFTDYSMNWVKQAPGKGLKWVGRINTETGEPTYADDFKGRFAFSLETSASTAYLQIKNLKNEDTATYFCVRDYAKRWGQGTSVTVSS
VL: DIVMTQSHKFMSTSVGDRVSITCKASQDVITAVAWYQQKPGQSPKLLIYSTSYRYTGVPDRFTGSGSGTDFTFTISSVQAEDLAVYYCLQHYTTPWTFGGGTKLEIK
notes: Mouse IgG1 purified from hybridoma supernatant; also called CNCM I-5232
Binder B2 has an EC50 [1] of 0.01 µg/mL, an EC50 [2] of 0.04 µg/mL and an EC50 [3] of 0.04 µg/mL. It also gave an EC50 [4] of 0.07 µg/mL, an EC50 [5] of 0.07 µg/mL and an EC50 [6] of 0.01 µg/mL.

B3: mAb3 (mouse anti-human BTN2 mAb 7.28) (antibody, V domains shown)
VH: QVHLQQSGAELMKPGASVKISCKATGYTFSSYWIEWVKQRPGHGREWIGEILPGSGSTKYNEKFRGKATFAADTSSNTAYVQLSSLTSEDSAVYYCARLKGYYGGGAMDYWGQGTSVTVSS
VL: DVQITQSPSYLAASPGETITINCRASKSISKYLAWYQEKPGKTNELLIYSGSTLQSGIPSRFSGSGSGTDFTLTISSLEPEDFAMYYCQQHNEYPWTFGGGTKLEIK
notes: Mouse IgG1 purified from hybridoma supernatant; also called CNCM I-5233
With B3 the EC50 [1] was 11.8 µg/mL, the EC50 [2] was 0.02 µg/mL and the EC50 [3] was 0.02 µg/mL. The EC50 [4] was 31.3 µg/mL, the EC50 [5] was 31.3 µg/mL and the EC50 [6] was 11.8 µg/mL.

B4: mAb4 (mouse anti-human BTN2 mAb 7.48) (antibody, V domains shown)
VH: EVQLVESGGDLVKPGGSLKLSCAASGFTFSDFYMYWVRRTPEKRLEWVATISDGGSHTYYPDSVKGRFTISRDNAKNNLYLQMRSLKSEDTAMYYCGRDTTIITPYWGQGTLVTVSA
VL: QSVVTQESALTTSPGETVTLTCRSSTGAVTTSNYANWVQEKPDHLFTGLIGGTNNRAPGVPARFSGSLIGDKAALTITGAQTEDEAIYFCGLWYSNHWVFGGGTKLTVL
notes: Mouse IgG1 purified from hybridoma supernatant; also called CNCM I-5234
B4 gave an EC50 [1] of 0.01 µg/mL, an EC50 [2] of 0.02 µg/mL and an EC50 [3] of 0.02 µg/mL. The EC50 [4] was 0.08 µg/mL, the EC50 [5] was 0.08 µg/mL and the EC50 [6] was 0.01 µg/mL.

B5: mAb5 (mouse anti-human BTN2 mAb 8.15) (antibody, V domains shown)
VH: EVKLLESGGGLVQPGGSLKLSCAASGFDFSGYWMTWVRQAPGKGLEWIGEINPDSSTINYTPSLRDKFIISRDNAKNTLYLQMSKVRSEDTALYFCARGSYYPSYWGQGTLVTVSA
VL: DIVLTQSPASLAVSLGQRATISCRASKSVSSSGYSYMNWYQQKPGQPPKLLIYLASNLESGVPARFSGSGSGTDFTLNIHPVEDEDAATYYCQHSRELPHTFGGGTKLEIK
notes: Mouse IgG1 purified from hybridoma supernatant; also called CNCM I-5235
With B5 the EC50 [1] was 0.5 µg/mL, the EC50 [2] was 0.08 µg/mL and the EC50 [3] was 0.08 µg/mL. For the same binder, the EC50 [4] was 0.1 µg/mL, the EC50 [5] was 0.1 µg/mL and the EC50 [6] was 0.5 µg/mL.

B6: mAb6 (mouse anti-human BTN2 mAb 8.16) (antibody, V domains shown)
VH: EVKLLESGGGLVQPGGSLKLSCAASGFDFSGYWMTWVRQAPGKGLEWIGEINPDSSTINYTPSLRDKFIISRDNAKNTLYLQMSKVRSEDTALYFCARGSYYPSYWGQGTLVTVSA
VL: DIVLTQSPASLAVSLGQRATISCRASKSVSSSGYSYMNWYQQKPGQPPKLLIYLASNLESGVPARFSGSGSGTDFTLNIHPVEDEDAATYYCQHSRELPHTFGGGTKLEIK
notes: Mouse IgG1 purified from hybridoma supernatant; also called CNCM I-5236
B6 showed an EC50 [1] of 2.4 µg/mL, an EC50 [2] of 0.08 µg/mL and an EC50 [3] of 0.08 µg/mL. The EC50 [4] was 0.11 µg/mL, the EC50 [5] was 0.11 µg/mL and the EC50 [6] was 2.4 µg/mL.

B7: mAb7 (mAb 8.33, comparative control antibody) (antibody, V domains shown)
VH: DVQLQESGPGLVKPSQSLSLTCSVTGYSITSGYYWNWIRQFPGNKLEWMGYISYDGNNNYNPSLKNRISITRDTSKNQFFLKLNSVTTEDTATYYCASPLYDGYYWYFDVWGAGTTVTVSS
VL: ETTVTQSPASLSLAIGEKVTIRCITSTDIDDDMNWYQQKPGEPPKLLISEANTLRPGVPSRFSSSGRGTDFVFTIENMLSEDVADYYCLQSDNLPYTFGGGTKLEIK
notes: Mouse IgG1 purified from hybridoma supernatant; also called CNCM I-5237
B7: no binding [7]; no binding [8]; no binding [9].
